In patent US20090117124A1 (Pfizer, published 2009):

How the values were obtained:
[1] = target: T1, cynomolgus monkey IgE (in cynomolgus serum, Harlan Sera-Lab Ltd) (cynomolgus monkey); test: capture ELISA, Test 1, Cyno 2
T1 construct: Serum was the source of IgE; eight serum samples; also called cynomolgus IgE; Cyno 1 to Cyno 8 serum samples
Description: (§1) Wells were washed once with 150 μL/well wash buffer (0.05% Tween-20, Sigma, Cat. No. P7949/TBS) then blocked with 150 μL/well 1% BSA (Sigma, Cat. No. A7030) in TBS for 2 hours at room temperature. Wells were washed twice with 150 μL wash buffer. 50 μL human (in-house donors) or cynomolgus serum (Harlan Sera-Lab Ltd, Loughborough) was added from neat to at least 1:16 dilution in 1% BSA/0.05% Tween-20/TBS diluent buffer. […] Wells were incubated for 2 hours at 25° C. before washing (3×150 μL wash buffer). […] Wells were incubated for 1 hour at 25° C. then washed (3×150 μL wash buffer). Streptavidin-HRP (Amersham Bioscience, Cat. No. RPN 1231) diluted 1:1000 in diluent buffer was added to all wells and incubated for 45 minutes at room temperature. Wells were washed (3×150 […] wash buffer). 50 μL OPD (Dako, Cat. No. S2045) was added to all wells and the color allowed to develop for 10 minutes before stopping the reaction with 50 μl 0.6M H₂SO₄ and the absorbance measured at 490 nm.

[2] = target: T2, free IgE in human serum (healthy volunteers, in-house donors) (human, UniProt P01854-1 1-428); test: serum free IgE depletion ELISA; DIN 0011 experiment 1
T2 construct: Kept apart from the bought myeloma IgE because it is native serum IgE of single donors; also called serum IgE
T2 sequence (P01854 other isoform, or with tags, fused parts or gaps): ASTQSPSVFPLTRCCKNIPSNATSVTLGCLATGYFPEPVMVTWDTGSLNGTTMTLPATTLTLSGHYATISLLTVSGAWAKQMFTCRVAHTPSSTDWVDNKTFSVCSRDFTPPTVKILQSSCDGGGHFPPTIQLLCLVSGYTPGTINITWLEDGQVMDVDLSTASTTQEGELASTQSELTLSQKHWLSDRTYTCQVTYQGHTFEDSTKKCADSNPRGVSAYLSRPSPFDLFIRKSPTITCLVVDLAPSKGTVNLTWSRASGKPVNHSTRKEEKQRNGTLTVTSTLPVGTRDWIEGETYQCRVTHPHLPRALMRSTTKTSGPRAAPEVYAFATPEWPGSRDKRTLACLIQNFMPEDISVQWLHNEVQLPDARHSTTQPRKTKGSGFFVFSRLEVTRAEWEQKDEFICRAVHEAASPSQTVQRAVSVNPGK
Description: (§2) The next day ELISA plates were washed 1× with 300 μL/well wash buffer (0.05% Tween-20, Sigma, Cat. No. P7949/TBS) then blocked with 150 μL/well 1% BSA (Sigma, Cat. No. A7030) in TBS for 1 hour at room temperature.

[3] = target: T2, free IgE in human serum (healthy …); test: serum free IgE depletion ELISA; DIN 0451 experiment 1
Description: as §2

[4] = target: T2, free IgE in human serum (healthy …); test: serum free IgE depletion ELISA; DIN 0284
Description: as §2

[5] = target: T2, free IgE in human serum (healthy …); test: serum free IgE depletion ELISA; DIN 0382
Description: as §2

[6] = target: T2, free IgE in human serum (healthy …); test: serum free IgE depletion ELISA; DIN 0632 experiment 1
Description: as §2

[7] = target: T1, cynomolgus monkey IgE (in cynomolgus …); test: capture ELISA, Test 1, Cyno 5
Description: as §1

[8] = target: T2, free IgE in human serum (healthy …); test: serum free IgE depletion ELISA; DIN 0321 experiment 1
Description: as §2

[9] = target: T1, cynomolgus monkey IgE (in cynomolgus …); test: capture ELISA, Test 1, Cyno 7
Description: as §1

[10] = target: T1, cynomolgus monkey IgE (in cynomolgus …); test: capture ELISA, Test 1, Cyno 4
Description: as §1

[11] = target: T2, free IgE in human serum (healthy …); test: serum free IgE depletion ELISA; DIN 0623 experiment 1
Description: as §2

IgE concentration detected [1]: 464 ng/mL
IC25 ng/mL [2]: 3.3 µg/mL
IC25 ng/mL [3]: 11.6 µg/mL
IC25 ng/mL [4]: 2.45 µg/mL
IC25 ng/mL [5]: 25 µg/mL
IC25 ng/mL [6]: 8.91 µg/mL
IgE concentration detected [7]: 837 ng/mL
IC25 ng/mL [8]: 1.34 µg/mL
IgE concentration detected [9]: 8 ng/mL
IgE concentration detected [10]: 39 ng/mL
IC25 ng/mL [11]: 0.5 µg/mL
B1: 5.948.1 (recombinant) (antibody, human IgG2, kappa, V domains shown)
VH: QVQLVQSGAEVKKPGASVKVSCKASGYTFTSYDINWVRQATGQGLEWMGWMDPNSGNTGYAQKFQGRVTMTRNTSISTAYMELSSLRSEDTAVYYCARGHYDSDGYYSFSGMDVWGQGTTVTVSS
VL: not shown
notes: Human IgG2 kappa; leader omitted; Two batches were tested in some assays; also called recombinant 5.948.1; 5.948.1 - Batch 1 (762.8 µg/mL)
